Source: patent US20090196872A1 (KIRIN BEER, published 2009)

Columns and labels:
M2DLTGS peptide = M2DLTGS peptide (influenza A virus); assay: peptide ELISA, avian flu M2 variants
M2LTKGS peptide = M2LTKGS peptide (influenza A virus); assay: peptide ELISA, avian flu M2 variants

B1: human anti-M2 monoclonal antibody no. Z3G1 (recombinant IgG1 type Z3, CHO; ATCC PTA-5967) (antibody, V domains shown)
VH: QVQLVQSGAEVKKPGASVKVSCKASGYTFTSYGISWVRQAPGQGLEWMGWISAYNGNTNYAQKLQGRVTMTTDTSTSTAYMELRSLRSDDTAVYYCARAAAGGYFQHWGQGTLVTVSS
VL: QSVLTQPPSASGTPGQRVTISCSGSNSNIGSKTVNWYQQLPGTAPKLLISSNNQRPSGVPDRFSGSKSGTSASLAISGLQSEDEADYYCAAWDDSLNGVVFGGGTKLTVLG
binding result (M2DLTGS peptide): binds | binding result (M2LTKGS peptide): binds
